Two molecules from PMC7166090, “A bacteriophage mimic of the bacterial nucleoid-associated protein Fis” (Biochemical Journal, 2020) can be followed below.

In one series the target is T1, His-NinH H45A (Bacteriophage lambda (cI857 Sam7), UniProt P03771 1-68, A15T;H45A).
T1 sequence: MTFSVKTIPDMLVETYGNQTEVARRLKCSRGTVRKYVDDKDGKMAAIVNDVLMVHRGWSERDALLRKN
As to the kind of experiment: MST; retained significant binding; MST: PBS pH 7.4 + 0.05% Tween-20, 22 C; anisotropy: 6.7 mM Tris-HCl pH 8.0, 3.3 nM (so in the source) sodium acetate, 2 mM EDTA, 25 C; EMSA (32P): 50 mM Tris-HCl pH 8.0, 5 mM EDTA, 1 mM DTT, 5% glycerol, 100 ug/ml BSA, on ice; EMSA (Cy520): PBS pH 7.4, room temp. The conditions noted are these: protein: recombinant; tags: N-His6; label: 5'-Cy5 on strand 1; blunt. For orientation: In EMSA bound probe runs differently from free probe, usually more slowly.

Series [1] has as its target T2, His-NinH wt (Bacteriophage lambda (cI857 Sam7), UniProt P03771 1-68, A15T).
T2 sequence: T1 sequence with A45H
The experiment in a line: EMSA; sub-micromolar; PBS; MST: PBS pH 7.4 + 0.05% Tween-20, 22 C; anisotropy: 6.7 mM Tris-HCl pH 8.0, 3.3 nM (so in the source) sodium acetate, 2 mM EDTA, 25 C; EMSA (32P): 50 mM Tris-HCl pH 8.0, 5 mM EDTA, 1 mM DTT, 5% glycerol, 100 ug/ml BSA, on ice; EMSA (Cy520): PBS pH 7.4, room temp. The conditions noted are these: protein: recombinant; tags: N-His6; chain copies: 2; label: 5'-Cy5 on strand 1; blunt.

The target in the next series is T3, His-NinH N18A (Bacteriophage lambda (cI857 Sam7), UniProt P03771 1-68, A15T;N18A).
T3 sequence: T1 sequence with N18A, A45H
The experiment in a line: MST; intermediate effect; MST: PBS pH 7.4 + 0.05% Tween-20, 22 C; anisotropy: 6.7 mM Tris-HCl pH 8.0, 3.3 nM (so in the source) sodium acetate, 2 mM EDTA, 25 C; EMSA (32P): 50 mM Tris-HCl pH 8.0, 5 mM EDTA, 1 mM DTT, 5% glycerol, 100 ug/ml BSA, on ice; EMSA (Cy520): PBS pH 7.4, room temp. Conditions: protein: recombinant; tags: N-His6; chain copies: 2; label: 5'-Cy5 on strand 1; blunt.

A further series concerns the target T4, His-NinH K35A (Bacteriophage lambda (cI857 Sam7), UniProt P03771 1-68, A15T;K35A).
T4 sequence: T1 sequence with K35A, A45H
The experiment in a line: MST; MST: PBS pH 7.4 + 0.05% Tween-20, 22 C; anisotropy: 6.7 mM Tris-HCl pH 8.0, 3.3 nM (so in the source) sodium acetate, 2 mM EDTA, 25 C; EMSA (32P): 50 mM Tris-HCl pH 8.0, 5 mM EDTA, 1 mM DTT, 5% glycerol, 100 ug/ml BSA, on ice; EMSA (Cy520): PBS pH 7.4, room temp. The conditions noted are these: protein: recombinant; tags: N-His6; chain copies: 2; label: 5'-Cy5 on strand 1; blunt.

The next series has as its target T5, His-NinH S29A (Bacteriophage lambda (cI857 Sam7), UniProt P03771 1-68, A15T;S29A).
T5 sequence: T1 sequence with S29A, A45H
The description is as above. Conditions: protein: recombinant; tags: N-His6; chain copies: 2; label: 5'-Cy5 on strand 1; blunt.

A further series concerns the target T6, His-NinH T32A (Bacteriophage lambda (cI857 Sam7), UniProt P03771 1-68, A15T;T32A).
T6 sequence: T1 sequence with T32A, A45H
The description is as above. The conditions noted are these: protein: recombinant; tags: N-His6; chain copies: 2; label: 5'-Cy5 on strand 1; blunt.

Series [2] has as its target T2, His-NinH wt. Described as above. The conditions noted are these: protein: recombinant; tags: N-His6; chain copies: 2; label: 5'-Cy5 on strand 1; blunt.
Another series deals with T7, His-NinH R56A (Bacteriophage lambda (cI857 Sam7), UniProt P03771 1-68, A15T;R56A).
T7 sequence: T1 sequence with A45H, R56A
Described as above. Conditions: protein: recombinant; tags: N-His6; chain copies: 2; label: 5'-Cy5 on strand 1; blunt.

For series [3], the target named is T2, His-NinH wt. As to the kind of experiment: EMSA; assembles on each arm; MST: PBS pH 7.4 + 0.05% Tween-20, 22 C; anisotropy: 6.7 mM Tris-HCl pH 8.0, 3.3 nM (so in the source) sodium acetate, 2 mM EDTA, 25 C; EMSA (32P): 50 mM Tris-HCl pH 8.0, 5 mM EDTA, 1 mM DTT, 5% glycerol, 100 ug/ml BSA, on ice; EMSA (Cy520): PBS pH 7.4, room temp. The conditions noted are these: protein: recombinant; tags: N-His6; chain copies: 2; label: 5'-32P on strand 1; four-way junction, 11 bp homologous core.

Changes are numbered by the printed parent chain.

B1: Cy520 (NinH consensus) (dsDNA)
DNA 1: ACCGATCAAGAATTGTGCAT
DNA 2: ATGCACAATTCTTGATCGGT
In the case of B1, the Kd – broadly, a measure of binding affinity in units of concentration – with His-NinH H45A was > 350 nM; with His-NinH wt [1] it was < 1000 nM; with His-NinH N18A, > 220 nM; with His-NinH S29A, 13 ± 2.7 nM; with His-NinH wt [2], 5.6 ± 1.5 nM. The binding result with His-NinH K35A, with His-NinH T32A and with His-NinH R56A was “no binding” in each case.

B2: Holliday junction HJ (structured_DNA)
DNA 1: GGCGACGTGATCACCAGATGATTGCTAGGCATGCTTTCCGCAAGAGAAGC
DNA 2: GGCTTCTCTTGCGGAAAGCATGCCTAGCAATCCTGTCAGCTGCATGGAAC
DNA 3: GGTTCCATGCAGCTGACAGGATTGCTAGGCTCAAGGCGAACTGCTAACGG
DNA 4: ACCGTTAGCAGTTCGCCTTGAGCCTAGCAATCATCTGGTGATCACGTCGC
In the case of B2, the binding result with His-NinH wt [3] is on record as “binds”.
